Common to all, as to assay: NADPH fluorescence, initial rates, Michaelis-Menten fit
Substrate in data set [1]: NC(=O)c1ccc[n+]([C@@H]2O[C@H](COP(=O)(O)OP(=O)(O)OC[C@H]3O[C@@H](n4cnc5c(N)ncnc54)[C@H](OP(=O)(O)O)[C@@H]3O)[C@@H](O)[C@H]2O)c1
The data set is classed as biochemical, Azotobacter vinelandii. To be noted: 1 mM isocitrate, 1 mM MnCl2, 20 mM MOPS pH 7.4, 100 mM NaCl, 30 °C, varied: cofactor. The text has this:
(§1) NADPH fluorescence, initial rates, Michaelis-Menten fit on AvIDH

Substrate in data set [2]: O=C(O)CC(C(=O)O)C(O)C(=O)O
The data set is classed as biochemical, Azotobacter vinelandii. The settings on record: 1 mM NADP+, 1 mM MnCl2, 20 mM MOPS pH 7.4, 100 mM NaCl, 30 °C, DL-isocitrate 0-100 μM.
Excerpt: as §1

Substrate in data set [3]: NC(=O)c1ccc[n+]([C@@H]2O[C@H](COP(=O)(O)OP(=O)(O)OC[C@H]3O[C@@H](n4cnc5c(N)ncnc54)[C@H](OP(=O)(O)O)[C@@H]3O)[C@@H](O)[C@H]2O)c1
The data set is classed as biochemical, Corynebacterium glutamicum. The settings on record: 1 mM isocitrate, 1 mM MnCl2, 20 mM MOPS pH 7.4, 100 mM NaCl, 30 °C, varied: cofactor. The text has this: (§2) NADPH fluorescence, initial rates, Michaelis-Menten fit on CgIDH

Substrate in data set [4]: O=C(O)CC(C(=O)O)C(O)C(=O)O
Type of data set: biochemical, Corynebacterium glutamicum. To be noted: 1 mM NADP+, 1 mM MnCl2, 20 mM MOPS pH 7.4, 100 mM NaCl, 30 °C, DL-isocitrate 0-100 μM.
Excerpt: as §2

B1: AvIDH (Azotobacter vinelandii) (protein)
chain: STPKIIYTLTDEAPALATYSLLPIIKAFTGSSGIAVETRDISLAGRLIATFPEYLTDTQKISDDLAELGKLATTPDANIIKLPNISASVPQLKAAIKELQQQGYKLPDYPEEPKTDTEKDVKARYDKIKGSAVNPVLREGNSDRRAPLSVKNYARKHPHKMGAWSADSKSHVAHMDNGDFYGSEKAALIGAPGSVKIELIAKDGSSTVLKAKTSVQAGEIIDSSVMSKNALRNFIAAEIEDAKKQGVLLSVHLKATMMKVSDPIMFGQIVSEFYKDALTKHAEVLKQIGFDVNNGIGDLYARIKTLPEAKQKEIEADIQAVYAQRPQLAMVNSDKGITNLHVPSDVIVDASMPAMIRDSGKMWGPDGKLHDTKAVIPDRCYAGVYQVVIEDCKQHGAFDPTTMGSVPNVGLMAQKAEEYGSHDKTFQIPADGVVRVTDESGKLLLEQSVEAGDIWRMCQAKDAPIQDWVKLAVNRARATNTPAVFWLDPARAHDAQVIAKVERYLKDYDTSGLDIRILSPVEATRFSLARIREGKDTISVTGNVLRDYLTDLFPIMELGTSAKMLSIVPLMSGGGLFETGAGGSAPKHVQQFLEEGYLRWDSLGEFLALAASLEHLGNAYKNPKALVLASTLDQATGKILDNNKSPARKVGEIDNRGSHFYLALYWAQALAAQTEDKELQAQFTGIAKALTDNETKIVGELAAAQGKPVDIAGYYHPNTDLTSKAIRPSATFNAALAPLA
notes: full-length gene, C-terminal 6xHis (kept), pET24a, E. coli BL21(DE3), Ni-NTA
For orientation: Km means the concentration of substrate that gives half-maximal velocity. For orientation: kcat means the maximal rate divided by the concentration of active sites. What is called kcat/Km is the second-order rate constant that governs catalysis at low substrate concentration. As to B1, in data set [1], the Km is 5.9 µM, the kcat was determined as 38.7 s⁻¹ and the kcat/Km amounted to 6.6e+06 M⁻¹ s⁻¹. Besides, in data set [2], the Km was determined as 13.9 µM, the kcat stood at 44 s⁻¹ and the kcat/Km was 3.2e+06 M⁻¹ s⁻¹.

B2: CgIDH (Corynebacterium glutamicum ATCC 13032) (protein)
chain: MAKIIWTRTDEAPLLATYSLKPVVEAFAATAGIEVETRDISLAGRILAQFPERLTEDQKVGNALAELGELAKTPEANIIKLPNISASVPQLKAAIKELQDQGYDIPELPDNATTDEEKDILARYNAVKGSAVNPVLREGNSDRRAPIAVKNFVKKFPHRMGEWSADSKTNVATMDANDFRHNEKSIILDAADEVQIKHIAADGTETILKDSLKLLEGEVLDGTVLSAKALDAFLLEQVARAKAEGILFSAHLKATMMKVSDPIIFGHVVRAYFADVFAQYGEQLLAAGLNGENGLAAILSGLESLDNGEEIKAAFEKGLEDGPDLAMVNSARGITNLHVPSDVIVDASMPAMIRTSGHMWNKDDQEQDTLAIIPDSSYAGVYQTVIEDCRKNGAFDPTTMGTVPNVGLMAQKAEEYGSHDKTFRIEADGVVQVVSSNGDVLIEHDVEANDIWRACQVKDAPIQDWVKLAVTRSRLSGMPAVFWLDPERAHDRNLASLVEKYLADHDTEGLDIQILSPVEATQLSIDRIRRGEDTISVTGNVLRDYNTDLFPILELGTSAKMLSVVPLMAGGGLFETGAGGSAPKHVQQVQEENHLRWDSLGEFLALAESFRHELNNNGNTKAGVLADALDKATEKLLNEEKSPSRKVGEIDNRGSHFWLTKFWADELAAQTEDADLAATFAPVAEALNTGAADIDAALLAVQGGATDLGGYYSPNEEKLTNIMRPVAQFNEIVDALKK
notes: full-length gene, C-terminal 6xHis (kept), pET24a, E. coli BL21(DE3), Ni-NTA; about 80 kDa by SEC, monomer
B2: in data set [3], the Michaelis-Menten constant (Km) is 10.3 µM, the catalytic constant (kcat) amounted to 43.7 s⁻¹ and the catalytic efficiency (kcat/Km) is 4.3e+06 M⁻¹ s⁻¹. For the same protein, in data set [4], the Km amounted to 15.0 µM, the kcat amounted to 49.4 s⁻¹ and the specificity constant (kcat/Km) was 3.3e+06 M⁻¹ s⁻¹.

Values taken from article PMC9736777, “Expression and Characterization of Monomeric Recombinant Isocitrate Dehydrogenases from Corynebacterium glutamicum and Azotobacter vinelandii for NADPH Regeneration” (International Journal of Molecular Sciences, 2022).
